Data on four molecules can be found in PMC3820802, “Activin Signaling Targeted by Insulin/dFOXO Regulates Aging and Muscle Proteostasis in Drosophila”.

For data set [1], the target named is T1, Smox MH1 DNA-binding domain (UniProt O96660 1-140).
T1 sequence: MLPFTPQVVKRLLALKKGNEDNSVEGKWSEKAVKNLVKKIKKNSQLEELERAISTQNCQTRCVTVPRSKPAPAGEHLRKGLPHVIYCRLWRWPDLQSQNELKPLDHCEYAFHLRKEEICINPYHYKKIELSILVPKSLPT
Kind of data set: competition; EMSA, cold competitor vs labeled N1; did not compete; 10 mM Tris-HCl pH 7.5, 150 mM KCl, 5 mM MgCl2, 10 ng/uL poly(dI-dC), ~50 ng probe, 20 ug protein in 10 uL, room temperature 20 min; 0.8% agarose, 0.5x TBE. As to conditions: protein: recombinant; tags: His6-HaloTag (pFN29K vector; purified with HaloTag kit, tag retention: called Halo-tagged in legend); (only one strand seen in the material).

Data set [2] has as its target T1, Smox MH1 DNA-binding domain. The data set can be described thus: EMSA; 10 mM Tris-HCl pH 7.5, 150 mM KCl, 5 mM MgCl2, 10 ng/uL poly(dI-dC), ~50 ng probe, 20 ug protein in 10 uL, room temperature 20 min; 0.8% agarose, 0.5x TBE. As to conditions: protein: recombinant; tags: His6-HaloTag (pFN29K vector; purified with HaloTag kit, tag retention: called Halo-tagged in legend); label: 3' biotin; (only one strand seen in the material). (In general: A gel shift assay detects complexes by their altered migration in electrophoresis.)

Data set [3] shares this target. Kind of data set: EMSA; blocked by unlabeled wild-type probe; 10 mM Tris-HCl pH 7.5, 150 mM KCl, 5 mM MgCl2, 10 ng/uL poly(dI-dC), ~50 ng probe, 20 ug protein in 10 uL, room temperature 20 min; 0.8% agarose, 0.5x TBE. Particulars: protein: recombinant; tags: His6-HaloTag (pFN29K vector; purified with HaloTag kit, tag retention: called Halo-tagged in legend); (only one strand seen in the material).

B1: Atg8a-Mut3 (dsDNA)
DNA 1: CATATTAGATAGATACCATT
DNA 2: AATGGTATCTATCTAATATG
In the case of B1, the binding result in data set [1] is recorded as “no binding”.

B2: SBE (vertebrate Smad binding element) (dsDNA)
DNA 1: GTATGTCTAGACTGAA
DNA 2: TTCAGTCTAGACATAC
For B2, in data set [2], the binding result is “binds”.

B3: Atg8a probe (dsDNA)
DNA 1: CATATTAGACAGACACCATT
DNA 2: AATGGTGTCTGTCTAATATG
B3: the binding result in data set [3] is listed as “binds”.

B4: Atg8a-Mut2 (dsDNA)
DNA 1: CATATTAGCTACATACCATT
DNA 2: AATGGTATGTAGCTAATATG
Turning to B4, in data set [1], the binding result was “no binding”.
